In PMC7318626 one finds Kd data, which are given here for three substances.

This experiment addresses Neonatal Fc receptor (FcRn), soluble form (UniProt P55899). In words: mass photometry (single-molecule counting of species by mass). As to conditions: not stated (in the SI).
Chain of UniProt P55899 (P55899 whole entry): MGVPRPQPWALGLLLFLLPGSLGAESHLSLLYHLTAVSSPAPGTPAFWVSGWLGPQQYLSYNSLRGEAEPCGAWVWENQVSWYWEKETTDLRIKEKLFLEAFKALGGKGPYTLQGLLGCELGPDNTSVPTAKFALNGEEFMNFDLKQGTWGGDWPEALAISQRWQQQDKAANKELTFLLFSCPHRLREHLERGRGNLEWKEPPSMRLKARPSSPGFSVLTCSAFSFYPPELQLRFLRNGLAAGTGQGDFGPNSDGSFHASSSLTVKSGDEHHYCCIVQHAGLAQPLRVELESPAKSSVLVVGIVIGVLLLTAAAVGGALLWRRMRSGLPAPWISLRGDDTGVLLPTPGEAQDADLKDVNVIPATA

For “Neonatal Fc receptor (FcRn), soluble form”, the Kd (as a rule, the constant that tells how readily two partners part at equilibrium) was 44 ± 9 nM (pH 5, pH 5, 5.5, 6 and 7); 31 ± 11 nM (pH 5, pH 5, 5.5 and 6); 171 ± 19 nM (pH 5.5, pH 5, 5.5, 6 and 7); over 200 nM (pH 5.5, pH 5, 5.5 and 6); over 200 nM (pH 6, pH 5, 5.5 and 6).

Turning to “Trastuzumab (Herceptin), IgG1 monoclonal antibody, called 'IgG' in the article”, the Kd by setting is: (pH 5, pH 5, 5.5, 6 and 7) 59 ± 8 nM; (pH 5.5, pH 5, 5.5, 6 and 7) 225 ± 20 nM; (pH 6, pH 5, 5.5, 6 and 7) over 200 nM; (pH 7, pH 5, 5.5, 6 and 7) over 200 nM.

On to “Trastuzumab (Herceptin), IgG1 monoclonal antibody, called 'IgG' in the article + Neonatal Fc receptor (FcRn), soluble form”, for which the Kd amounted to 6.6 ± 0.6 nM (pH 5, pH 5, 5.5, 6 and 7); 3.9 ± 1.5 nM (pH 5.5, pH 5, 5.5, 6 and 7).
